Legend:
Assay type in all cases: biochemical, Methanothermobacter marburgensis
[1] = substrate: NC(=O)C1=CN([C@@H]2O[C@H](COP(=O)(O)OP(=O)(O)OC[C@H]3O[C@@H](n4cnc5c(N)ncnc54)[C@H](O)[C@@H]3O)[C@@H](O)[C@H]2O)C=CC1; test: purified protein; conditions: 1 mM coenzyme Q1 as acceptor, 50 mM Mops pH 7.4, 30°C
[2] = substrate: NC(=O)C1=CN([C@@H]2O[C@H](COP(=O)(O)OP(=O)(O)OC[C@H]3O[C@@H](n4cnc5c(N)ncnc54)[C@H](OP(=O)(O)O)[C@@H]3O)[C@@H](O)[C@H]2O)C=CC1; test: purified protein; conditions: 1 mM coenzyme Q1 as acceptor, 50 mM Mops pH 7.4, 30°C
[3] = substrate: CN(C)c1ccc(N=Nc2ccccc2C(=O)O)cc1; test: reduction with electron donor, absorbance; conditions: electron acceptor, donor not stated (presumably NADH), varied substrate not stated, general method varies the donor, 50 mM Mops pH 7.4, 30°C

B1: MmNQO (Methanothermobacter marburgensis str. Marburg) (protein)
chain: MHVYILFAHPSRKSFSREVLEAFTEGLSEAGHTYEVGDLYRMNFRSELSQEEYLREISQEAGSPLPEDVMEEHERIGRADALAFIYPLWWSDCPAKLKGWFDRVWTYGYAYFYEDGERGTRIDIEKAVVLCSAGHTEEDLEGTGIAESMRSVMLGDRLLGVGVKNVTMEILGGMVPGDDSCREINLMRARRAGRNL
notes: full length 196 residues, N-terminal MAS added, non-cleavable C-terminal His6 tag (EHHHHHH) kept; pET21, E. coli BL21(DE3); 23538 Da; homodimer with FMN
Km [1]: 96.8 µM
kcat [1]: 0.26 s⁻¹
kcat/Km [1]: 2680 M⁻¹ s⁻¹
Km [2]: 111.6 µM
kcat [2]: 0.243 s⁻¹
kcat/Km [2]: 2170 M⁻¹ s⁻¹
Km [3]: 683 µM
kcat [3]: 0.106 s⁻¹

From paper PMC4274662, “A novel cytosolic NADH:quinone oxidoreductase from Methanothermobacter marburgensis” (Bioscience Reports, 2014)
